In patent US20140087995A1 (published 2014):
Numbered stars: 1 amine (or outer) side, 2 acyl side, 3 side chain; on linkers, the order of the positions; unused ones are H or OH. Bridge positions count the residues as written; N and C are the ends. Side chains are listed from the residue outwards. Ends that are not written are not given here. * marks the point of attachment. C20 diacid = O=C(O)CCCCCCCCCCCCCCCCCCC(=O)*; γGlu = O=C(O)[C@H](CCC(=O)[*:2])N[*:1]; AEEA = NCCOCCOCC(=O)O

Experiments:
[1] = biological target: T1, human calcitonin receptor (human, UniProt P30988 25-474); test: SPA competition on BHK cell membranes, 125I-calcitonin as radioligand (Assay VII)
T1 construct: whole, on cells; Used as cell membranes; also called hCTR; hCT
T1 sequence (looked up): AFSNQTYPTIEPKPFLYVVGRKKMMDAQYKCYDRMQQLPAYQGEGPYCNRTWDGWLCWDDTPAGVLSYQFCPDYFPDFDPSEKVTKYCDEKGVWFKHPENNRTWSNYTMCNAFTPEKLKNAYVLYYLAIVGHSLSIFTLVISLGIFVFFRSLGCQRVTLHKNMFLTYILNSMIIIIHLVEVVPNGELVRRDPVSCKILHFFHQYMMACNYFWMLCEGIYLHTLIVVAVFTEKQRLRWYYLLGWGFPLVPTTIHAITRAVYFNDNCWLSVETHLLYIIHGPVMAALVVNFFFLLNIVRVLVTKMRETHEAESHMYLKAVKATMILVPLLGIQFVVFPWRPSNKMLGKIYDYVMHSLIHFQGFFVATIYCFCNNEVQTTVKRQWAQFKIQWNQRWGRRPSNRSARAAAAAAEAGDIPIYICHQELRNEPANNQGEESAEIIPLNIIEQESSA
Method: Membranes were prepared in the following way; the cells were rinsed with PBS and incubated with Versene for approximately 5 min before harvesting. The cells were flushed with PBS and the cell-suspension was centrifuged for 5 min at 1000 rpm. Cells were homogenized (Ultrathurrax) in a buffer containing 20 mM Na-HEPES and 10 mM EDTA (pH 7.4) and centrifuged at 20.000 rpm for 15 min. The resulting pellet was resuspended, homogenized and centrifuged (20.000 rpm, 15 min) in a buffer containing 20 mM Na-HEPES and 0.1 mM EDTA (pH 7.4, buffer 2). The resulting pellet was resuspended in buffer 2 and protein concentration was measured (BCA protein Assay, Pierce). The homogenate was kept cold during the whole procedure. The membranes were kept at −80° C. until use. Assay was performed in a 384 well Optiplate (PerkinElmer) in a total volume of 40 ul. Membranes were mixed with SPA beads. Final concentration of membranes 35 ng/μL final and Final concentration of SPA beads was 0.05 mg/well. Test-compounds were dissolved in DMSO and further diluted in assay buffer (50 mM Hepes, pH 7.4, 1 mM CaCl2, 5 mM MgCl₂, 0.1% OA and 0.02% Tween20). […] The final mixture was incubated for 120 min with shaking at 400 rpm at 25° C. prior to centrifugation (1500 rpm, 10 min). Samples were analyzed on TopCounter™ (Packard). The […] was calculated using (one site binding competition analysis) GraphPad Prism5 as a measure of receptor affinity.

[2] = biological target: T1, human calcitonin receptor; test: ratio of hCTR IC50 to hAmylin-R IC50 (reference: human amylin receptor)
Method: The resulting pellet was resuspended, homogenized and centrifuged (20.000 rpm, 15 min) in a buffer containing 20 mM Na-HEPES and 0.1 mM EDTA (pH 7.4, buffer 2). The resulting pellet was resuspended in buffer 2 and protein concentration was measured (BCA protein Assay, Pierce). The homogenate was kept cold during the whole procedure. The membranes were kept at −80° C. until use. The assay was performed in a 384 well Optiplate (PerkinElmer) in a total volume of 40 ul. Membranes were mixed with SPA beads. Final concentration of membranes 35 ng/μL final and SPA beads was 0.05 mg/well. Test-compounds were dissolved in DMSO and further diluted in assay buffer (50 mM Hepes, pH 7.4, 1 mM CaCl2, 5 mM MgCl₂, 0.1% OA and 0.02% Tween20). […] The final mixture was incubated with shaking at 400 rpm for 120 min at 25° C. prior to centrifugation (1500 rpm, 10 min). Samples were analyzed on TopCounter™ (Packard). The IC₅₀ was calculated using (one site binding competition analysis) GraphPad Prism5 as a measure of receptor affinity.
Membranes were prepared in the following way; the cells were rinsed with PBS and incubated with Versene for approximately 5 min before harvesting. The cells were flushed with PBS and the cell-suspension was centrifuged for 5 min at 1000 rpm. Cells were homogenized (Ultrathurrax) in a buffer containing 20 mM Na-HEPES and 10 mM EDTA (pH 7.4) and centrifuged at 20.000 rpm for 15 min. The resulting pellet was resuspended, homogenized and centrifuged (20.000 rpm, 15 min) in a buffer containing 20 mM Na-HEPES and 0.1 mM EDTA (pH 7.4, buffer 2). The resulting pellet was resuspended in buffer 2 and protein concentration was measured (BCA protein Assay, Pierce). The homogenate was kept cold during the whole procedure. The membranes were kept at −80° C. until use. Assay was performed in a 384 well Optiplate (PerkinElmer) in a total volume of 40 ul. Membranes were mixed with SPA beads.

B1: N^ε1-[2-[2-[2-[[(4S)-4-carboxy-4-(19-carboxynonadecanoylamino)butanoyl]amino]ethoxy]ethoxy]acetyl]-[Gly14,Arg17,Pro21,Pro27,Pro31]-h-amylin (peptide)
peptide: K([AEEA-γGlu-C20 diacid])CNTATCATQRLAGFLRHSSPNFGAIPSSTPVGSNTY-NH2
modifications: disulfide 2-7; N-terminus assumed
SMILES: CC[C@H](C)[C@H](NC(=O)[C@H](C)NC(=O)CNC(=O)[C@H](Cc1ccccc1)NC(=O)[C@H](CC(N)=O)NC(=O)[C@@H]1CCCN1C(=O)[C@H](CO)NC(=O)[C@H](CO)NC(=O)[C@H](Cc1c[nH]cn1)NC(=O)[C@H](CCCNC(=N)N)NC(=O)[C@H](CC(C)C)NC(=O)[C@H](Cc1ccccc1)NC(=O)CNC(=O)[C@H](C)NC(=O)[C@H](CC(C)C)NC(=O)[C@H](CCCNC(=N)N)NC(=O)[C@H](CCC(N)=O)NC(=O)[C@@H](NC(=O)[C@H](C)NC(=O)[C@@H]1CSSC[C@H](NC(=O)[C@@H](N)CCCCNC(=O)COCCOCCNC(=O)CC[C@H](NC(=O)CCCCCCCCCCCCCCCCCCC(=O)O)C(=O)O)C(=O)N[C@@H](CC(N)=O)C(=O)N[C@@H]([C@@H](C)O)C(=O)N[C@@H](C)C(=O)N[C@@H]([C@@H](C)O)C(=O)N1)[C@@H](C)O)C(=O)N1CCC[C@H]1C(=O)N[C@@H](CO)C(=O)N[C@@H](CO)C(=O)N[C@H](C(=O)N1CCC[C@H]1C(=O)N[C@H](C(=O)NCC(=O)N[C@@H](CO)C(=O)N[C@@H](CC(N)=O)C(=O)N[C@H](C(=O)N[C@@H](Cc1ccc(O)cc1)C(N)=O)[C@@H](C)O)C(C)C)[C@@H](C)O
notes: also called compound 71
In the case of B1, the IC50 [1] is reported as 1.53 nM and the “Ratio hCT/hAmylin binding” value [2] is reported as 32.

B2: N^ε1-[2-[2-[2-[[(4S)-4-carboxy-4-(19-carboxynonadecanoylamino)butanoyl]amino]ethoxy]ethoxy]acetyl]-[His14,Arg17,Pro21,Pro27,Arg34]-h-amylin (peptide)
peptide: K([AEEA-γGlu-C20 diacid])CNTATCATQRLAHFLRHSSPNFGAIPSSTNVGRNTY-NH2
modifications: disulfide 2-7; N-terminus assumed
SMILES: CC[C@H](C)[C@H](NC(=O)[C@H](C)NC(=O)CNC(=O)[C@H](Cc1ccccc1)NC(=O)[C@H](CC(N)=O)NC(=O)[C@@H]1CCCN1C(=O)[C@H](CO)NC(=O)[C@H](CO)NC(=O)[C@H](Cc1c[nH]cn1)NC(=O)[C@H](CCCNC(=N)N)NC(=O)[C@H](CC(C)C)NC(=O)[C@H](Cc1ccccc1)NC(=O)[C@H](Cc1c[nH]cn1)NC(=O)[C@H](C)NC(=O)[C@H](CC(C)C)NC(=O)[C@H](CCCNC(=N)N)NC(=O)[C@H](CCC(N)=O)NC(=O)[C@@H](NC(=O)[C@H](C)NC(=O)[C@@H]1CSSC[C@H](NC(=O)[C@@H](N)CCCCNC(=O)COCCOCCNC(=O)CC[C@H](NC(=O)CCCCCCCCCCCCCCCCCCC(=O)O)C(=O)O)C(=O)N[C@@H](CC(N)=O)C(=O)N[C@@H]([C@@H](C)O)C(=O)N[C@@H](C)C(=O)N[C@@H]([C@@H](C)O)C(=O)N1)[C@@H](C)O)C(=O)N1CCC[C@H]1C(=O)N[C@@H](CO)C(=O)N[C@@H](CO)C(=O)N[C@H](C(=O)N[C@@H](CC(N)=O)C(=O)N[C@H](C(=O)NCC(=O)N[C@@H](CCCNC(=N)N)C(=O)N[C@@H](CC(N)=O)C(=O)N[C@H](C(=O)N[C@@H](Cc1ccc(O)cc1)C(N)=O)[C@@H](C)O)C(C)C)[C@@H](C)O
notes: also called compound 84
With B2 the IC50 [1] was 88.9 nM and the “Ratio hCT/hAmylin binding” value [2] was 120.
